Measured values taken from patent US20250332230A1.

How the values were obtained:
[1] = target: Human Alkaline Phosphatase/ALPI Protein (His Tag) (Sino Biological Cat. No. 13225-H08H) (human) (UniProt P09923); experiment: sandwich ECL (MSD), capture AbD54140ad; HC01, HIAP nominal 192.0 ng/mL
[2] = target: Human Alkaline Phosphatase/ALPI Protein (His Tag) (Sino Biological Cat. No. 13225-H08H) (human) (UniProt P09923); experiment: sandwich ECL (MSD), capture AbD54140ad; HC02, HIAP nominal 192.0 ng/mL
[3] = target: Human Alkaline Phosphatase/ALPI Protein (His Tag) (Sino Biological Cat. No. 13225-H08H) (human) (UniProt P09923); experiment: sandwich ECL (MSD), capture AbD54140ad; LC01, HIAP nominal 1.500 ng/mL
[4] = target: Human Alkaline Phosphatase/ALPI Protein (His Tag) (Sino Biological Cat. No. 13225-H08H) (human) (UniProt P09923); experiment: sandwich ECL (MSD), capture AbD54140ad; LC02, HIAP nominal 1.500 ng/mL
[5] = target: Human Alkaline Phosphatase/ALPI Protein (His Tag) (Sino Biological Cat. No. 13225-H08H) (human) (UniProt P09923); experiment: sandwich ECL (MSD), capture AbD54140ad; MC01, HIAP nominal 12.00 ng/mL
[6] = target: Human Alkaline Phosphatase/ALPI Protein (His Tag) (Sino Biological Cat. No. 13225-H08H) (human) (UniProt P09923); experiment: sandwich ECL (MSD), capture AbD54140ad; MC02, HIAP nominal 12.00 ng/mL
[7] = target: Human Alkaline Phosphatase/ALPI Protein (His Tag) (Sino Biological Cat. No. 13225-H08H) (human) (UniProt P09923); experiment: sandwich ECL (MSD), capture AbD54140ad; ST01, HIAP nominal 256.0 ng/mL
[8] = target: Human Alkaline Phosphatase/ALPI Protein (His Tag) (Sino Biological Cat. No. 13225-H08H) (human) (UniProt P09923); experiment: sandwich ECL (MSD), capture AbD54140ad; ST02, HIAP nominal 128.0 ng/mL
[9] = target: Human Alkaline Phosphatase/ALPI Protein (His Tag) (Sino Biological Cat. No. 13225-H08H) (human) (UniProt P09923); experiment: sandwich ECL (MSD), capture AbD54140ad; ST03, HIAP nominal 64.00 ng/mL
[10] = target: Human Alkaline Phosphatase/ALPI Protein (His Tag) (Sino Biological Cat. No. 13225-H08H) (human) (UniProt P09923); experiment: sandwich ECL (MSD), capture AbD54140ad; ST04, HIAP nominal 32.00 ng/mL
[11] = target: Human Alkaline Phosphatase/ALPI Protein (His Tag) (Sino Biological Cat. No. 13225-H08H) (human) (UniProt P09923); experiment: sandwich ECL (MSD), capture AbD54140ad; ST05, HIAP nominal 16.00 ng/mL
[12] = target: Human Alkaline Phosphatase/ALPI Protein (His Tag) (Sino Biological Cat. No. 13225-H08H) (human) (UniProt P09923); experiment: sandwich ECL (MSD), capture AbD54140ad; ST06, HIAP nominal 8.000 ng/mL
[13] = target: Human Alkaline Phosphatase/ALPI Protein (His Tag) (Sino Biological Cat. No. 13225-H08H) (human) (UniProt P09923); experiment: sandwich ECL (MSD), capture AbD54140ad; ST07, HIAP nominal 4.000 ng/mL
[14] = target: Human Alkaline Phosphatase/ALPI Protein (His Tag) (Sino Biological Cat. No. 13225-H08H) (human) (UniProt P09923); experiment: sandwich ECL (MSD), capture AbD54140ad; ST08, HIAP nominal 2.000 ng/mL
[15] = target: Human Alkaline Phosphatase/ALPI Protein (His Tag) (Sino Biological Cat. No. 13225-H08H) (human) (UniProt P09923); experiment: sandwich ECL (MSD), capture AbD54140ad; ST09, HIAP nominal 1.000 ng/mL
[16] = target: Human Alkaline Phosphatase/ALPI Protein (His Tag) (Sino Biological Cat. No. 13225-H08H) (human) (UniProt P09923); experiment: sandwich ECL (MSD), capture AbD54140ad; ST10, HIAP nominal 0.5000 ng/mL
[17] = target: Human Alkaline Phosphatase/ALPI Protein (His Tag) (Sino Biological Cat. No. 13225-H08H) (human) (UniProt P09923); experiment: sandwich ECL (MSD), capture AbD54140ad; ULOQ01, HIAP nominal 256.0 ng/mL
[18] = target: Human Alkaline Phosphatase/ALPI Protein (His Tag) (Sino Biological Cat. No. 13225-H08H) (human) (UniProt P09923); experiment: sandwich ECL (MSD), capture AbD54140ad; ULOQ02, HIAP nominal 256.0 ng/mL
[19] = target: Human Alkaline Phosphatase/ALPI Protein (His Tag) (Sino Biological Cat. No. 13225-H08H) (human) (UniProt P09923); experiment: sandwich ECL (MSD), capture AbD54140ad; LLOQ01, HIAP nominal 0.5000 ng/mL
[20] = target: Human Alkaline Phosphatase/ALPI Protein (His Tag) (Sino Biological Cat. No. 13225-H08H) (human) (UniProt P09923); experiment: sandwich ECL (MSD), capture AbD54140ad; LLOQ02, HIAP nominal 0.5000 ng/mL

Chain of UniProt P09923 (P09923 20-503 limits assumed): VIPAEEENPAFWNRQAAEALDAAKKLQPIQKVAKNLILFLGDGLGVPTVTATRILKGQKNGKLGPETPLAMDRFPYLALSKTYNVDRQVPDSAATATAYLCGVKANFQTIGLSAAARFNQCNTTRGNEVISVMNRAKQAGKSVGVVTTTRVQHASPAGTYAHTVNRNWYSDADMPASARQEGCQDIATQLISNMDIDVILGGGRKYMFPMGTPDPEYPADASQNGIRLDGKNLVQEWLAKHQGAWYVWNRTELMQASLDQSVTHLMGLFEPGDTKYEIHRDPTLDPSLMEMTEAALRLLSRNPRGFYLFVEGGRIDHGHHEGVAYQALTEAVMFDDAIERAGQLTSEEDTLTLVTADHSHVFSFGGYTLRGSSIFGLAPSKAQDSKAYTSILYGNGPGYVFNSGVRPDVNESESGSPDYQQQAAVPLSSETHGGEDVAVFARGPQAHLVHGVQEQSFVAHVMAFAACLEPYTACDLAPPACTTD

sulfo-tagged anti-HIAP monoclonal antibody AbD54130ad from BioRad
Instrument Response [1]: 444000 | Instrument Response [2]: 456000 | Instrument Response [3]: 9110 | Instrument Response [4]: 9430 | Instrument Response [5]: 64000 | Instrument Response [6]: 68900 | Instrument Response [7]: 504000 | Instrument Response [8]: 416000 | Instrument Response [9]: 301000 | Instrument Response [10]: 186000 | Instrument Response [11]: 101000 | Instrument Response [12]: 54400 | Instrument Response [13]: 27300 | Instrument Response [14]: 13000 | Instrument Response [15]: 7040 | Instrument Response [16]: 3760 | Instrument Response [17]: 508000 | Instrument Response [18]: 528000 | Instrument Response [19]: 3360 | Instrument Response [20]: 3260
